Test results taken from paper PMC6555819, “Comprehensive study of nuclear receptor DNA binding provides a revised framework for understanding receptor specificity”.

Assays:
RARa:RXRa = RARa:RXRa (Homo sapiens, UniProt P10276;P19793 full;full); assay: no ligand; PBM; 270 nM : 90 nM RXRa; PBS pH 7.4, 2% milk, 0.02% Triton X-100, 1 mM DTT, BSA, 0.4 mg/ml salmon testes DNA; conditions: tags: His kept;His cleaved; copies: 1;1; label: surface-attached array probe
Outline: (§1)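 Scanned fluorescence from custom Agilent 4×180K protein-binding microarrays was regression-normalized. Binding z-scores use random background probes as reference. Ligand-free nuclear receptor dimers were incubated on the arrays for 1 h and detected with antibodies against each partner (one per run).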

PPARa:RXRa = PPARa:RXRa (Homo sapiens, UniProt Q07869;P19793 full;full); assay: as above; conditions: tags: GST kept;His cleaved; copies: 1;1; label: surface-attached array probe
Outline: as §1

RARb:RXRa = RARb:RXRa (Homo sapiens, UniProt P10826;P19793 full;full); assay: as above; conditions: tags: His kept;His cleaved; copies: 1;1; label: surface-attached array probe
Outline: as §1

RXRa = RXRa (Homo sapiens, UniProt P19793); assay: no ligand; PBM; 180 nM; PBS pH 7.4, 2% milk, 0.02% Triton X-100, 1 mM DTT, BSA, 0.4 mg/ml salmon testes DNA; conditions: tags: His cleaved; chain copies: 2; label: surface-attached array probe
FXR:RXRa = FXR:RXRa (Homo sapiens, UniProt Q96RI1;P19793 full;full); assay: no ligand; PBM; 270 nM : 90 nM RXRa; PBS pH 7.4, 2% milk, 0.02% Triton X-100, 1 mM DTT, BSA, 0.4 mg/ml salmon testes DNA; conditions: tags: His kept;His cleaved; copies: 1;1; label: surface-attached array probe
Outline: as §1

RARa:RXRa, sequence (P10276 whole entry, chain 1 of 2): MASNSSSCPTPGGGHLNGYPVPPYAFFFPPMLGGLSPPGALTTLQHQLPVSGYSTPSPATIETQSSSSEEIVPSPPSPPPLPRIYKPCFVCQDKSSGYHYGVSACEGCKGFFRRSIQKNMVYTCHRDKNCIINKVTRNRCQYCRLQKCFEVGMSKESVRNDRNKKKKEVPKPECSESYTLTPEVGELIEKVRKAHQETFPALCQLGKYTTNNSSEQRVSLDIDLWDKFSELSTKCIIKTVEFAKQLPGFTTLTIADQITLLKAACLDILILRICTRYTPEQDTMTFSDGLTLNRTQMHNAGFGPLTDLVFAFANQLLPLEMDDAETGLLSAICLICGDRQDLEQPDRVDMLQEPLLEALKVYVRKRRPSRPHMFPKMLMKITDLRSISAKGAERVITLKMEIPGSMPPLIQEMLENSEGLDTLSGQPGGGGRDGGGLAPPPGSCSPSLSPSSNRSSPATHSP
RARa:RXRa, sequence (P19793 whole entry, chain 2 of 2): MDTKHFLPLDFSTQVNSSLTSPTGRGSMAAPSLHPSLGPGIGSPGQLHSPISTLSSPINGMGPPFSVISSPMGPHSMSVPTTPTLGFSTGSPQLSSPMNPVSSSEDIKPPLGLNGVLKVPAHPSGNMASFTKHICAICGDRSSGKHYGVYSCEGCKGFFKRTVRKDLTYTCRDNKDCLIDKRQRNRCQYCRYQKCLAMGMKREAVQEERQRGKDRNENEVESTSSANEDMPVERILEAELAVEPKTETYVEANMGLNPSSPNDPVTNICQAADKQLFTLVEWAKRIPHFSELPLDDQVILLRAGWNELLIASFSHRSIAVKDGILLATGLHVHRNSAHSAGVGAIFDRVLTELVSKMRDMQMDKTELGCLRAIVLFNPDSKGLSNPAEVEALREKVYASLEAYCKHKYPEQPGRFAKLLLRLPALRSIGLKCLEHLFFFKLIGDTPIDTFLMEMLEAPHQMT
RARb:RXRa, sequence (P10826 whole entry, chain 1 of 2): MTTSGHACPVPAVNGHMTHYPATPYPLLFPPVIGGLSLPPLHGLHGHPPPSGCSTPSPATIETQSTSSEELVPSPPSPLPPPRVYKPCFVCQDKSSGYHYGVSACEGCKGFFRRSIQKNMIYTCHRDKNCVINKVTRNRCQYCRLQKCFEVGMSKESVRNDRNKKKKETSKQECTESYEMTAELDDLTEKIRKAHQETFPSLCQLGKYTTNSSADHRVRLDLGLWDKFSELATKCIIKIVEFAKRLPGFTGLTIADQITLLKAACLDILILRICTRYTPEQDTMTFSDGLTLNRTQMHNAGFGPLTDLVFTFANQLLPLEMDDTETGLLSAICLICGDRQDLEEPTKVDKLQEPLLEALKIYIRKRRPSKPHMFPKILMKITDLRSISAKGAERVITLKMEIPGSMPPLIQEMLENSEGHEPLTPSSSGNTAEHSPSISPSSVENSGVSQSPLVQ
RARb:RXRa, sequence (P19793 whole entry, chain 2 of 2): as the sequence (P19793 whole entry, chain 2 of 2) above
FXR:RXRa, sequence (Q96RI1 whole entry, chain 1 of 2): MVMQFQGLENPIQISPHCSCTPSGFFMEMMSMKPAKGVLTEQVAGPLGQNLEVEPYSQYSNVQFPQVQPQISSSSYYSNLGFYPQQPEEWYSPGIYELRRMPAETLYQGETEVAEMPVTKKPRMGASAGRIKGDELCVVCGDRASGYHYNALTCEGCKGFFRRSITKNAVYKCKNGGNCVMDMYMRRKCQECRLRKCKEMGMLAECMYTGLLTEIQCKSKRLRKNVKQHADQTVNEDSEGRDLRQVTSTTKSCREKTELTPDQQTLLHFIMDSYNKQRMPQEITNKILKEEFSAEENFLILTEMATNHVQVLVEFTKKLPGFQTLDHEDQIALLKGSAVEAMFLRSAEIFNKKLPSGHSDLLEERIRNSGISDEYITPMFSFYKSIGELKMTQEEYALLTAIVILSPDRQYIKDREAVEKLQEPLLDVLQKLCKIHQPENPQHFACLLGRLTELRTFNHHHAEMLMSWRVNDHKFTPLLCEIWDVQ
FXR:RXRa, sequence (P19793 whole entry, chain 2 of 2): as the sequence (P19793 whole entry, chain 2 of 2) above
RXRa, sequence (P19793 whole entry): as the sequence (P19793 whole entry, chain 2 of 2) above
PPARa:RXRa, sequence (Q07869 whole entry, chain 1 of 2): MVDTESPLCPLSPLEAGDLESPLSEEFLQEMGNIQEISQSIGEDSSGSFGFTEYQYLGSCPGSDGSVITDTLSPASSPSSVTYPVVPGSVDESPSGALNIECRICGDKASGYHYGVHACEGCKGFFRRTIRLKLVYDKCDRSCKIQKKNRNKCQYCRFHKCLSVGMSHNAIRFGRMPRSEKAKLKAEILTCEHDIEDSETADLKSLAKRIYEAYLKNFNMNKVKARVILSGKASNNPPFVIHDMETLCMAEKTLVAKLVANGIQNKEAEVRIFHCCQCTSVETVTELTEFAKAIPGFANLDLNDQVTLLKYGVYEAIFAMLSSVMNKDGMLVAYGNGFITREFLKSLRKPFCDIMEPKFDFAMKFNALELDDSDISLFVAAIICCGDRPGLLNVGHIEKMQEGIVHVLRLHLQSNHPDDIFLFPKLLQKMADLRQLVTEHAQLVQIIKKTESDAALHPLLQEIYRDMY
PPARa:RXRa, sequence (P19793 whole entry, chain 2 of 2): as the sequence (P19793 whole entry, chain 2 of 2) above

B1: NRC3_wobSeed37_DR1_G4A_o1 (dsDNA)
DNA 1: GCCATCCAAGGTCAAAGGTCAGTGAAGAGATGACGGGCGATTGACAGCGTAGAATGAAGG
DNA 2: CCTTCATTCTACGCTGTCAATCGCCCGTCATCTCTTCACTGACCTTTGACCTTGGATGGC
binding signal (RARa:RXRa): 9.27 PBM z-score against 500 random probes | binding signal (PPARa:RXRa): 7.54 PBM z-score against 500 random probes | binding signal (RARb:RXRa): 6.38 PBM z-score against 500 random probes

B2: NRC3_wobSeed37_DR1_T5G_o1 (dsDNA)
DNA 1: GCCGGCCAAGGTCAAAGGTCAGTGAAGAGATGACGGGCGATTGACAGCGTAGAATGAAGG
DNA 2: CCTTCATTCTACGCTGTCAATCGCCCGTCATCTCTTCACTGACCTTTGACCTTGGCCGGC
binding signal (RXRa): 10.7 PBM z-score against 500 random probes | binding signal (RARa:RXRa): 9.26 PBM z-score against 500 random probes

B3: NRC3_random_hg19_403_o1 (dsDNA)
DNA 1: GCATCTCCTGCCTCAGCCTCCTGAATAGGTGGGACTGCGATTGACAGCGTAGAATGAAGG
DNA 2: CCTTCATTCTACGCTGTCAATCGCAGTCCCACCTATTCAGGAGGCTGAGGCAGGAGATGC
binding signal (RARa:RXRa): -0.6 PBM z-score against 500 random probes | binding signal (RARb:RXRa): -1.01 PBM z-score against 500 random probes

B4: NRC3_wobSeed2_DR0_G17C_o1 (dsDNA)
DNA 1: GCCCTAGTTGGTCAAGCTCACACACGCTATAGGTACGCGATTGACAGCGTAGAATGAAGG
DNA 2: CCTTCATTCTACGCTGTCAATCGCGTACCTATAGCGTGTGTGAGCTTGACCAACTAGGGC
binding signal (RXRa): 0.35 PBM z-score against 500 random probes | binding signal (RARa:RXRa): 0.43 PBM z-score against 500 random probes

B5: NRC3_wobSeed134_DR5_G26A_o1 (dsDNA)
DNA 1: GCGCTGCTAGGTCAACTGATGGTCAACTAAAGCTCGGCGATTGACAGCGTAGAATGAAGG
DNA 2: CCTTCATTCTACGCTGTCAATCGCCGAGCTTTAGTTGACCATCAGTTGACCTAGCAGCGC
binding signal (RARa:RXRa): 3.74 PBM z-score against 500 random probes | binding signal (FXR:RXRa): 4.04 PBM z-score against 500 random probes

B6: NRC3_wobSeed51_DR2_G23A_o1 (dsDNA)
DNA 1: GCCCTCGGAGGACAGAAGGTCAAAGCTGTCCGCTTTGCGATTGACAGCGTAGAATGAAGG
DNA 2: CCTTCATTCTACGCTGTCAATCGCAAAGCGGACAGCTTTGACCTTCTGTCCTCCGAGGGC
binding signal (RARa:RXRa): 3.96 PBM z-score against 500 random probes | binding signal (FXR:RXRa): 3.12 PBM z-score against 500 random probes

B7: NRC3_random_hg19_214_o1 (dsDNA)
DNA 1: GCATCCGTTCCTTGGAGGGAGTCTGCAGACTGGCTGGCGATTGACAGCGTAGAATGAAGG
DNA 2: CCTTCATTCTACGCTGTCAATCGCCAGCCAGTCTGCAGACTCCCTCCAAGGAACGGATGC
binding signal (RARa:RXRa): -2.33 PBM z-score against 500 random probes | binding signal (FXR:RXRa): -0.76 PBM z-score against 500 random probes

B8: NRC3_random_hg19_60_o1 (dsDNA)
DNA 1: GCGTGCTCACATGTCACATTCTGGTGATTCTTGCAAGCGATTGACAGCGTAGAATGAAGG
DNA 2: CCTTCATTCTACGCTGTCAATCGCTTGCAAGAATCACCAGAATGTGACATGTGAGCACGC
binding signal (RARa:RXRa): 0.05 PBM z-score against 500 random probes | binding signal (FXR:RXRa): -0.25 PBM z-score against 500 random probes

B9: NRC3_wobSeed53_DR2_A17G_o1 (dsDNA)
DNA 1: GCCCTTACGGGTCACGGGGTTATAGCACGACGAGCGGCGATTGACAGCGTAGAATGAAGG
DNA 2: CCTTCATTCTACGCTGTCAATCGCCGCTCGTCGTGCTATAACCCCGTGACCCGTAAGGGC
binding signal (RXRa): 8.24 PBM z-score against 500 random probes | binding signal (RARa:RXRa): 7.46 PBM z-score against 500 random probes

B10: NRC3_random_hg19_398_o1 (dsDNA)
DNA 1: GCAAGAAACAACAAACTTAGTACCTAGAAACAAGAGGCGATTGACAGCGTAGAATGAAGG
DNA 2: CCTTCATTCTACGCTGTCAATCGCCTCTTGTTTCTAGGTACTAAGTTTGTTGTTTCTTGC
binding signal (RARa:RXRa): 0.12 PBM z-score against 500 random probes | binding signal (RARb:RXRa): -0.22 PBM z-score against 500 random probes

B11: NRC3_wobSeed36_DR1_G12T_o1 (dsDNA)
DNA 1: GCCCGACTGGGTCAAAGGTTACCATACTCAGTACGAGCGATTGACAGCGTAGAATGAAGG
DNA 2: CCTTCATTCTACGCTGTCAATCGCTCGTACTGAGTATGGTAACCTTTGACCCAGTCGGGC
binding signal (RXRa): 7.96 PBM z-score against 500 random probes | binding signal (RARa:RXRa): 7.7 PBM z-score against 500 random probes | binding signal (PPARa:RXRa): 6.73 PBM z-score against 500 random probes

B12: NRC3_wobSeed34_DR1_G20C_o1 (dsDNA)
DNA 1: GCATCGAAAGGTCGAAGGTCAGTATACCCACCCGAAGCGATTGACAGCGTAGAATGAAGG
DNA 2: CCTTCATTCTACGCTGTCAATCGCTTCGGGTGGGTATACTGACCTTCGACCTTTCGATGC
binding signal (RXRa): 7.85 PBM z-score against 500 random probes | binding signal (RARa:RXRa): 7.04 PBM z-score against 500 random probes

B13: NRC3_random_hg19_476_o1 (dsDNA)
DNA 1: GCACAGCAAAGAGGCCAGCATGGCTAGAGCAGATCAGCGATTGACAGCGTAGAATGAAGG
DNA 2: CCTTCATTCTACGCTGTCAATCGCTGATCTGCTCTAGCCATGCTGGCCTCTTTGCTGTGC
binding signal (RXRa): -0.29 PBM z-score against 500 random probes | binding signal (RARa:RXRa): -0.83 PBM z-score against 500 random probes

B14: NRC3_random_hg19_304_o1 (dsDNA)
DNA 1: GCGGCTGTTAGCGCTCATCTCTGTGTGCCTTCACAGGCGATTGACAGCGTAGAATGAAGG
DNA 2: CCTTCATTCTACGCTGTCAATCGCCTGTGAAGGCACACAGAGATGAGCGCTAACAGCCGC
binding signal (RARa:RXRa): -1 PBM z-score against 500 random probes | binding signal (RARb:RXRa): -1.19 PBM z-score against 500 random probes

B15: NRC3_random_hg19_243_o1 (dsDNA)
DNA 1: GCCAAATGCTAGCAGAAGGCAAGAAACAACTAAGATGCGATTGACAGCGTAGAATGAAGG
DNA 2: CCTTCATTCTACGCTGTCAATCGCATCTTAGTTGTTTCTTGCCTTCTGCTAGCATTTGGC
binding signal (RARa:RXRa): -0.38 PBM z-score against 500 random probes | binding signal (FXR:RXRa): -0.92 PBM z-score against 500 random probes

B16: NRC3_wobSeed130_DR5_C13G_o1 (dsDNA)
DNA 1: GCCTCGAAAGGTGGTGCTCAGGTGAGTATACCAAACGCGATTGACAGCGTAGAATGAAGG
DNA 2: CCTTCATTCTACGCTGTCAATCGCGTTTGGTATACTCACCTGAGCACCACCTTTCGAGGC
binding signal (RXRa): -0.07 PBM z-score against 500 random probes | binding signal (RARa:RXRa): 0.34 PBM z-score against 500 random probes | binding signal (PPARa:RXRa): 0.16 PBM z-score against 500 random probes

B17: NRC3_wobSeed140_DR5_A9G_o1 (dsDNA)
DNA 1: GCAGAATGGGGTTATACGTAGATCAGGGAAGAAAGTGCGATTGACAGCGTAGAATGAAGG
DNA 2: CCTTCATTCTACGCTGTCAATCGCACTTTCTTCCCTGATCTACGTATAACCCCATTCTGC
binding signal (RARa:RXRa): 3.3 PBM z-score against 500 random probes | binding signal (FXR:RXRa): 4.21 PBM z-score against 500 random probes

B18: NRC3_wobSeed28_DR1_T8G_o1 (dsDNA)
DNA 1: GCCCTACGGGGCCAAAGGTCATTGATTCCAATGCTCGCGATTGACAGCGTAGAATGAAGG
DNA 2: CCTTCATTCTACGCTGTCAATCGCGAGCATTGGAATCAATGACCTTTGGCCCCGTAGGGC
binding signal (RXRa): 7.78 PBM z-score against 500 random probes | binding signal (RARa:RXRa): 7.56 PBM z-score against 500 random probes

B19: NRC3_random_hg19_429_o1 (dsDNA)
DNA 1: GCTTAGTGAAGTGAAGGTTGCTTTCTACTCATTTGAGCGATTGACAGCGTAGAATGAAGG
DNA 2: CCTTCATTCTACGCTGTCAATCGCTCAAATGAGTAGAAAGCAACCTTCACTTCACTAAGC
binding signal (RXRa): -0.28 PBM z-score against 500 random probes | binding signal (RARa:RXRa): 0.08 PBM z-score against 500 random probes

B20: NRC3_wobSeed82_DR3_T27A_o1 (dsDNA)
DNA 1: GCATCGAAAGGTCGACGAGGTGAGTAAACACCGTTTGCGATTGACAGCGTAGAATGAAGG
DNA 2: CCTTCATTCTACGCTGTCAATCGCAAACGGTGTTTACTCACCTCGTCGACCTTTCGATGC
binding signal (RARa:RXRa): 3.55 PBM z-score against 500 random probes | binding signal (FXR:RXRa): 4.45 PBM z-score against 500 random probes

B21: NRC3_random_hg19_254_o1 (dsDNA)
DNA 1: GCGCCTCTGGAATGTAAACTCCAGCCTGGCATGTATGCGATTGACAGCGTAGAATGAAGG
DNA 2: CCTTCATTCTACGCTGTCAATCGCATACATGCCAGGCTGGAGTTTACATTCCAGAGGCGC
binding signal (RARa:RXRa): -0.5 PBM z-score against 500 random probes | binding signal (RARb:RXRa): -0.34 PBM z-score against 500 random probes
